{
  "source": "IntAct's records for PubMed 28424519",
  "parents": {"B1": {"name": "Transcription regulatory protein SNF2 (Saccharomyces cerevisiae), P22082 (parent)", "chain": "MNIPQRQFSNEEVNRCYLRWQHLRNEHGMNAPSVPEFIYLTKVLQFAAKQRQELQMQRQQQGISGSQQNIVPNSSDQAELPNNASSHISASASPHLAPNMQLNGNETFSTSAHQSPIMQTQMPLNSNGGNNMLPQRQSSVGSLNATNFSPTPANNGENAAEKPDNSNHNNLNLNNSELQPQNRSLQEHNIQDSNVMPGSQINSPMPQQAQMQQAQFQAQQAQQAQQAQQAQQAQARLQQGRRLPMTMFTAEQSELLKAQITSLKCLVNRKPIPFEFQAVIQKSINHPPDFKRMLLSLSEFARRRQPTDQNNQSNLNGGNNTQQPGTNSHYNNTNTDNVSGLTRNAPLDSKDENFASVSPAGPSSVHNAKNGTLDKNSQTVSGTPITQTESKKEENETISNVAKTAPNSNKTHTEQNNPPKPQKPVPLNVLQDQYKEGIKVVDIDDPDMMVDSFTMPNISHSNIDYQTLLANSDHAKFTIEPGVLPVGIDTHTATDIYQTLIALNLDTTVNDCLDKLLNDECTESTRENALYDYYALQLLPLQKAVRGHVLQFEWHQNSLLTNTHPNFLSKIRNINVQDALLTNQLYKNHELLKLERKKTEAVARLKSMNKSAINQYNRRQDKKNKRLKFGHRLIATHTNLERDEQKRAEKKAKERLQALKANDEEAYIKLLDQTKDTRITHLLRQTNAFLDSLTRAVKDQQKYTKEMIDSHIKEASEEVDDLSMVPKMKDEEYDDDDDNSNVDYYNVAHRIKEDIKKQPSILVGGTLKDYQIKGLQWMVSLFNNHLNGILADEMGLGKTIQTISLLTYLYEMKNIRGPYLVIVPLSTLSNWSSEFAKWAPTLRTISFKGSPNERKAKQAKIRAGEFDVVLTTFEYIIKERALLSKVKWVHMIIDEGHRMKNAQSKLSLTLNTHYHADYRLILTGTPLQNNLPELWALLNFVLPKIFNSVKSFDEWFNTPFANTGGQDKIELSEEETLLVIRRLHKVLRPFLLRRLKKDVEKELPDKVEKVVKCKMSALQQIMYQQMLKYRRLFIGDQNNKKMVGLRGFNNQIMQLKKICNHPFVFEEVEDQINPTRETNDDIWRVAGKFELLDRILPKLKATGHRVLIFFQMTQIMDIMEDFLRYINIKYLRLDGHTKSDERSELLRLFNAPDSEYLCFILSTRAGGLGLNLQTADTVIIFDTDWNPHQDLQAQDRAHRIGQKNEVRILRLITTNSVEEVILERAYKKLDIDGKVIQAGKFDNKSTSEEQEALLRSLLDAEEERRKKRESGVEEEEELKDSEINEILARNDEEMAVLTRMDEDRSKKEEELGVKSRLLEKSELPDIYSRDIGAELKREESESAAVYNGRGARERKTATYNDNMSEEQWLRQFEVSDDEKNDKQARKQRTKKEDKSEAIDGNGEIKGENIDADNDGPRINNISAEDRADTDLAMNDDDFLSKKRKAGRPRGRPKKVKLEGSENSEPPALESSPVTGDNSPSEDFMDIPKPRTAGKTSVKSARTSTRGRGRGRGRGRGRGRGRGRPPKARNGLDYVRTPAAATSPIDIREKVAKQALDLYHFALNYENEAGRKLSDIFLSKPSKALYPDYYMIIKYPVAFDNINTHIETLAYNSLKETLQDFHLIFSNARIYNTEGSVVYEDSLELEKVVTKKYCEIMGDNSQLDFTEFDEQYGTRPLVLPPVVTSSVAESFTDEADSSMTEASV"}},
  "data": [
    {"variants_of": "B1", "settings": "with h4_yeast HHF1, P02309", "values": [
      {"variant": "E1069K;D1121K", "effect of a mutation on the interaction": "disrupting interaction"}
    ]}
  ]
}
